Publication PMC4423706, “Mechanism of Thiosulfate Oxidation in the SoxA Family of Cysteine-ligated Cytochromes” (The Journal of Biological Chemistry, 2015)
Changes are numbered by the printed parent chain. In names and notes the source's numbering stands.

Experiments:
[1] = biological target: T1, TsdA (thiosulfate dehydrogenase) (Allochromatium vinosum, UniProt D3RVD4); assay: ESI-MS of intact protein; format: biochemical; conditions: covalent; S-thiosulfonation of Cys123, +112 Da; pH 4.25 and pH 8.0; no electron donor
T1 construct: native signal peptide (removed on export), C-terminal strep(II) tag kept; E. coli Lemo56(DE3) with pEC86; two c-type hemes; 28,228 Da by ESI-MS; 234 residues modeled
T1 sequence (D3RVD4 28-270): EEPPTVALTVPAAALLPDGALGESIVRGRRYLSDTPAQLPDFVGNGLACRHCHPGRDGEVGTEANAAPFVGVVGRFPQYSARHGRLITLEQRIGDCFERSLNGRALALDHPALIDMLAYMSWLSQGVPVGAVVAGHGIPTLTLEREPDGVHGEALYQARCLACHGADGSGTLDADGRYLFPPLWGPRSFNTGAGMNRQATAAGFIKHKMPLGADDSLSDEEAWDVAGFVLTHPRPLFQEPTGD

[2] = substrate: O=S(O)(O)=S; assay: purified protein; format: biochemical, Allochromatium vinosum; conditions: 1 mM potassium ferricyanide as electron acceptor, 100 mM ammonium acetate pH 4.25, 24 °C

With `O=S(=O)(O)SSS(=O)(=O)O` [tetrathionate] as the molecule, how does the “ESI-MS of intact protein” value [1] read?
The value was “Tetrathionate treatment under both conditions gave the 112-Da increase in mass”.

B1: TsdA (thiosulfate dehydrogenase) (Allochromatium vinosum DSM 180) (protein)
chain: T1 sequence (D3RVD4 28-270)
notes: native signal peptide (removed on export), C-terminal strep(II) tag kept; E. coli Lemo56(DE3) with pEC86; two c-type hemes; 28,228 Da by ESI-MS; 234 residues modeled
With B1 as the molecule, how does the Km [2] read?
The Km was 2.2 ± 0.3 mM.

What about the kcat [2] of the same molecule?
Its kcat is 4280 ± 150 s⁻¹.

B2: TsdA (thiosulfate dehydrogenase) (Allochromatium vinosum DSM 180; R224A) (protein)
chain: T1 sequence (D3RVD4 28-270) with R197A
notes: as for B1
Which results are given for B2?
Km [2]: 2.5 ± 0.8 mM; kcat [2]: 3670 ± 460 s⁻¹

B3: TsdA (thiosulfate dehydrogenase) (Allochromatium vinosum DSM 180; R109A) (protein)
chain: T1 sequence (D3RVD4 28-270) with R82A
notes: as for B1
For B3, which Km [2] is on record?
The Km was 5.8 ± 0.8 mM.

What about the kcat [2] of the same molecule?
Its kcat is 3210 ± 310 s⁻¹.

B4: TsdA (thiosulfate dehydrogenase) (Allochromatium vinosum DSM 180; S127A) (protein)
chain: T1 sequence (D3RVD4 28-270) with S100A
notes: as for B1
For B4, which Km [2] is on record?
Its Km is 10.7 ± 6.2 mM.

What about the kcat [2] of the same molecule?
The kcat was 3060 ± 920 s⁻¹.

B5: TsdA (thiosulfate dehydrogenase) (Allochromatium vinosum DSM 180; R119A) (protein)
chain: T1 sequence (D3RVD4 28-270) with R92A
notes: as for B1
Which Km [2] does the source give for B5 here?
Its Km is 47 ± 7 mM.

What about the kcat [2] of the same molecule?
The kcat was 640 ± 40 s⁻¹.
